B1: HA-tagged wildtype Drosophila CYRI [Drosophila] / GST-tagged constitutively active Rac1 [Drosophila] (parent)
chain 1: MGKLLSLLSRDDSNCCAAKSYDVFLDFENAAPTETERAVYDEVERVLRESEVVLDEIQIYRGAGKEIREAIADPSPEVTAKAWAAVLPLVNKLKRCYEHSMELDKIVPKLLGQLVGGKLNPTQHLETQQALVKQLAEILEFVLKFDEYKMKTPAIQNDFSYYRRIVSRQRVDSTENMLVSTELANRMSLFYAHATPMLKVLSEATSKFVNDNADDVQNTTETLGTMAKVCLRMLENPKLLQQIEREDTKMLVLRVMVGLVILYDHVHPEGAFVRGAHVDVKGCVRLLQAQPAIKAEPLLNALRYTTKHLNGENTPKNIQRLLAA
chain 2: not shown

Variants of B1 are the subject of this test. Nature of the test: GST pull-down, western blot quantification. As to conditions: with GST-tagged constitutively active Rac1 Q61L [Drosophila]; Signals normalized to loaded input (1% of the starting lysate material); three independent experiments; read off a plot.
As to chain 1 R163D R164D, the response (% bound input) was determined as 0.015.

These data come from paper PMC11519390.
